What all share (experiment): cryo-EM structure; replisome assembled at room temperature from 0.7 uM CMG, forked DNA and ATPγS, then 1.5 molar excess of Polε, Ctf4, Tof1-Csm3; 100 mM KCl, 25 mM HEPES pH 7.6, 4 mM MgCl2, 4 mM ATPγS; 10-30% glycerol gradient with glutaraldehyde fixation; States I-VI by 3D classification
One data set addresses T1, Mcm4 (subunit of CMG) (yeast, UniProt P30665 1-933).
T1 construct: Mcm4, yeast; Chain of m1 as it stands in the replisome structure; source: yeast strain yJCZ2, purified as part of CMG (anti-FLAG M2 resin, Mono Q, Superose 6)
T1 sequence: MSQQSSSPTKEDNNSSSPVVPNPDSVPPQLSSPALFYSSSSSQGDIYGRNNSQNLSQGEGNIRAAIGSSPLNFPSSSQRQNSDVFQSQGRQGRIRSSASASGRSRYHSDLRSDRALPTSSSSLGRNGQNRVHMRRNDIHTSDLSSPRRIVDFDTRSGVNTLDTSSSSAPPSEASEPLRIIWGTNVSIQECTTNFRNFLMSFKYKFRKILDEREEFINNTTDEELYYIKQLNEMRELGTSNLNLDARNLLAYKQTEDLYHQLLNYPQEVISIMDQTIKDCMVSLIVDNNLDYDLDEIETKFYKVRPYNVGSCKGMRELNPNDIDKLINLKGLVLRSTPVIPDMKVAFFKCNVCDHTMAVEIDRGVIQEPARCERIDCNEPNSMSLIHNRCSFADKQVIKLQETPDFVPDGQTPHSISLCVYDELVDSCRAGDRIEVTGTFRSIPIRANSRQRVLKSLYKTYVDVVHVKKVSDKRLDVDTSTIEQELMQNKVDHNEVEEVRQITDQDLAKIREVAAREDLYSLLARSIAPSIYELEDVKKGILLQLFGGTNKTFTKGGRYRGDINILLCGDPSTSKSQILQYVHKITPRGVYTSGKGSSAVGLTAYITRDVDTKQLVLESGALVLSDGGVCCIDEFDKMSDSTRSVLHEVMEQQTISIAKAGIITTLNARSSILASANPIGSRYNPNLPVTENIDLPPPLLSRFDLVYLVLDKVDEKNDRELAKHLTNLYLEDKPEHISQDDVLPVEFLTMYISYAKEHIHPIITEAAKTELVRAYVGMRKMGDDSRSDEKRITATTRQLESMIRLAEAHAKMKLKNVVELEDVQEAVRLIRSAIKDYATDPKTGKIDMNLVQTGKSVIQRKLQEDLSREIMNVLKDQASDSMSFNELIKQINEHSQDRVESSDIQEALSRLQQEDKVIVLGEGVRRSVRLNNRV
As to conditions: both partners purified.

The target in a further data set is T2, Tof1-Csm3 (yeast, UniProt P53840 1-1238; Q04659 1-317).
T2 construct: Tof1, yeast; Csm3, yeast; Purified beforehand as one complex; also called Tof1 and Csm3; components of the fork protection complex (FPC); source: yeast strain yAE48, galactose-induced, purified (calmodulin resin, TEV elution, Mono Q, Superose 6); not shown: CBP, N-terminal, cleaved
T2 sequence (P53840 whole entry, chain 1 of 2): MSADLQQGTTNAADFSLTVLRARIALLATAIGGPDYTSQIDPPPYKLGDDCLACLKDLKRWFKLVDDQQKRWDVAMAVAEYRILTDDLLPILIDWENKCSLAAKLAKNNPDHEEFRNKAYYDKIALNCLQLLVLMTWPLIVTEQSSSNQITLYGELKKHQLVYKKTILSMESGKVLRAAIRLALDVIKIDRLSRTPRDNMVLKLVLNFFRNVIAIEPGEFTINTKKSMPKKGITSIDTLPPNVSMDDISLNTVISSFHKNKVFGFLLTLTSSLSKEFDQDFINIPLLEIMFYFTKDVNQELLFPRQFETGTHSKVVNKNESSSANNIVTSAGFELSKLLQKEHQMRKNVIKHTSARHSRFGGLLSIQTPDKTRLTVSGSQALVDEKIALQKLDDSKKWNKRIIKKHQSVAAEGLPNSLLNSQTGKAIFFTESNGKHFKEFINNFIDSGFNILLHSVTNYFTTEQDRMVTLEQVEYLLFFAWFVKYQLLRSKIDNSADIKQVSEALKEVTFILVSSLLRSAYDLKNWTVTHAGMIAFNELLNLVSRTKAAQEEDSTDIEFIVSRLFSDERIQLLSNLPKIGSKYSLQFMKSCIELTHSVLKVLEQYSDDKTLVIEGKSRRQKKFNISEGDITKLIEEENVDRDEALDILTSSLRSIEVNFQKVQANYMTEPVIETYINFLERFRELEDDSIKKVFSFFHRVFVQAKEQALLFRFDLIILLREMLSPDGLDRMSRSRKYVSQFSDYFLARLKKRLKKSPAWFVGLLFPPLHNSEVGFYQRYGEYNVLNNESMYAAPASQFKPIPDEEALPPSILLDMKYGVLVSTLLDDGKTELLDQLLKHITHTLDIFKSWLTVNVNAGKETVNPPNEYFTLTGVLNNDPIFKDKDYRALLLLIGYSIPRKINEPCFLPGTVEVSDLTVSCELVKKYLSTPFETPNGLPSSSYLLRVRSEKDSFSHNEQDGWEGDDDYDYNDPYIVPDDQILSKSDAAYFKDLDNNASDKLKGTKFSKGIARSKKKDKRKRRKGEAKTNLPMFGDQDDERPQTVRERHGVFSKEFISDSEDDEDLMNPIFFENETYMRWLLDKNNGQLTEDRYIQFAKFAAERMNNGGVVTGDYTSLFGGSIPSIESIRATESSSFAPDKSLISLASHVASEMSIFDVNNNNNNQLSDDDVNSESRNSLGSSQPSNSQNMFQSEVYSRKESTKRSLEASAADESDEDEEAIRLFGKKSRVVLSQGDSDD
T2 sequence (Q04659 whole entry, chain 2 of 2): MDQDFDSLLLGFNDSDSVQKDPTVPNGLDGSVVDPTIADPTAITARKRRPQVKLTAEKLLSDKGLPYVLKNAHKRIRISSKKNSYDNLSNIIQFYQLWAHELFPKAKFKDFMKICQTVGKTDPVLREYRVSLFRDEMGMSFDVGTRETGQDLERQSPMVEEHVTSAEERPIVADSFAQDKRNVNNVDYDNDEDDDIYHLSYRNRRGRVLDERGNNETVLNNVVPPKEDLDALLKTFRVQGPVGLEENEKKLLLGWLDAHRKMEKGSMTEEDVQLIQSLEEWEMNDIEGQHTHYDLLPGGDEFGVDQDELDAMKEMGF
As to conditions: both partners purified.

Another data set deals with T3, Mcm3 (subunit of CMG) (yeast, UniProt P24279 1-971).
T3 construct: Mcm3, yeast; Chain of m1 as it stands in the replisome structure; source: yeast strain yJCZ2, purified as part of CMG (anti-FLAG M2 resin, Mono Q, Superose 6)
T3 sequence (P24279 whole entry): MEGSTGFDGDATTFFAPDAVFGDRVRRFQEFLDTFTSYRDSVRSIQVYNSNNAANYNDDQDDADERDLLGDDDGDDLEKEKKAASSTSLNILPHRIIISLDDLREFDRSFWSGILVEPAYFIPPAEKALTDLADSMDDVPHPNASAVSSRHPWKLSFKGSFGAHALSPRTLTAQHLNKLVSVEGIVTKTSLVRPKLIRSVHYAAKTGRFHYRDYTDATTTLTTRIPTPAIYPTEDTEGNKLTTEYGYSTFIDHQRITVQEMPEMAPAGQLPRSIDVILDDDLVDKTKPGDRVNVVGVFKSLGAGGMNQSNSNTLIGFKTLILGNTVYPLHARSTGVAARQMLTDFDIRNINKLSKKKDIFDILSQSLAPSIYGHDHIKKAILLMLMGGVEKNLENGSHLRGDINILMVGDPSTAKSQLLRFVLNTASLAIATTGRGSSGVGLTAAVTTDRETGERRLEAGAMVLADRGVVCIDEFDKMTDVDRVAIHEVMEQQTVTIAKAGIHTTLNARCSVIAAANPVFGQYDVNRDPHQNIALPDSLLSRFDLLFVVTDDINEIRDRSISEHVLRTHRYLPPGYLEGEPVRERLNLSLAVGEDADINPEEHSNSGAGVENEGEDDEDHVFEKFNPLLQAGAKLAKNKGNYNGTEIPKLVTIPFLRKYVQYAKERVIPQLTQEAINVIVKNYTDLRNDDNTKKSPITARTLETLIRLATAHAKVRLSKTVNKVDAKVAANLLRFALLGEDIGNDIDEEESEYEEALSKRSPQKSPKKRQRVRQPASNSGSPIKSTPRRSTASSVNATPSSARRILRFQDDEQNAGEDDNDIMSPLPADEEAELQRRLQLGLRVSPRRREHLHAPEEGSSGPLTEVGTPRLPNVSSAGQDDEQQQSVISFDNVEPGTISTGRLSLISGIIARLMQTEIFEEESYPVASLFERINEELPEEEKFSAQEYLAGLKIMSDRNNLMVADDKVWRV
As to conditions: both partners purified.

The next data set concerns the target T4, Mcm5 (subunit of CMG) (yeast, UniProt P29496 1-775).
T4 construct: Mcm5, yeast; Chain of m1 as it stands in the replisome structure; also called Mcm5-CTD; Mcm5-WHD; source: yeast strain yJCZ2, purified as part of CMG (anti-FLAG M2 resin, Mono Q, Superose 6)
T4 sequence: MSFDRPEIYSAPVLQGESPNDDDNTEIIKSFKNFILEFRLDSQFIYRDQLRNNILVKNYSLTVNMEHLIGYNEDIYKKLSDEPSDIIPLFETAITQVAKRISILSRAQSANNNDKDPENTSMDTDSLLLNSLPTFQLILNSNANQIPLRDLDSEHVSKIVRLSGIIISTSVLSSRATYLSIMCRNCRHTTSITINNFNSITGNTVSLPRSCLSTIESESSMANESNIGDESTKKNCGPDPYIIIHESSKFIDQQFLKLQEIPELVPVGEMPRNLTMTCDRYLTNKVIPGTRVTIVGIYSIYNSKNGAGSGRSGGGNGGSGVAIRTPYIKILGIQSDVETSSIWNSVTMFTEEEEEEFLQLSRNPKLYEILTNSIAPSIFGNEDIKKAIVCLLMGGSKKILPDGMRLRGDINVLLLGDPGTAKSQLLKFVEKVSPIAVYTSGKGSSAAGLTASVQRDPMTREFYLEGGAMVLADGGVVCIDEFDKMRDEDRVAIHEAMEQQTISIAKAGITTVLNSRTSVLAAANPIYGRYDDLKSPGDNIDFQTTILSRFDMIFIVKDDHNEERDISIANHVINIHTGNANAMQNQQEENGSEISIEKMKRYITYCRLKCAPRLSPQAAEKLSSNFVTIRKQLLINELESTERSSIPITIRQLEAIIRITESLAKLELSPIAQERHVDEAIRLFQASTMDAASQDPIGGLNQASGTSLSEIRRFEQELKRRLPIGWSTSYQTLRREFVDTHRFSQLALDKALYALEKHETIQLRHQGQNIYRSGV
Particulars: both partners purified.

Data set [1] deals with the molecule itself.

B1: Mcm7 (subunit of CMG) (natural protein, yeast)
chain: MSAALPSIQLPVDYNNLFNEITDFLVTFKQDTLSSDATRNENEDENLDAENIEQHLLEKGPKYMAMLQKVANRELNSVIIDLDDILQYQNEKFLQGTQADDLVSAIQQNANHFTELFCRAIDNNMPLPTKEIDYKDDVLDVILNQRRLRNERMLSDRTNEIRSENLMDTTMDPPSSMNDALREVVEDETELFPPNLTRRYFLYFKPLSQNCARRYRKKAISSKPLSVRQIKGDFLGQLITVRGIITRVSDVKPAVEVIAYTCDQCGYEVFQEVNSRTFTPLSECTSEECSQNQTKGQLFMSTRASKFSAFQECKIQELSQQVPVGHIPRSLNIHVNGTLVRSLSPGDIVDVTGIFLPAPYTGFKALKAGLLTETYLEAQFVRQHKKKFASFSLTSDVEERVMELITSGDVYNRLAKSIAPEIYGNLDVKKALLLLLVGGVDKRVGDGMKIRGDINVCLMGDPGVAKSQLLKAICKISPRGVYTTGKGSSGVGLTAAVMKDPVTDEMILEGGALVLADNGICCIDEFDKMDESDRTAIHEVMEQQTISISKAGINTTLNARTSILAAANPLYGRYNPRLSPLDNINLPAALLSRFDILFLMLDIPSRDDDEKLAEHVTYVHMHNKQPDLDFTPVEPSKMREYIAYAKTKRPVMSEAVNDYVVQAYIRLRQDSKREMDSKFSFGQATPRTLLGIIRLSQALAKLRLADMVDIDDVEEALRLVRVSKESLYQETNKSKEDESPTTKIFTIIKKMLQETGKNTLSYENIVKTVRLRGFTMLQLSNCIQEYSYLNVWHLINEGNTLKFVDDGTMDTDQEDSLVSTPKLAPQTTASANVSAQDSDIDLQDA
notes: Mcm7, yeast; Chain of m1 as it stands in the replisome structure; source: yeast strain yJCZ2, purified as part of CMG (anti-FLAG M2 resin, Mono Q, Superose 6)
As to B1, the binding result in the data set with Mcm4 (subunit of CMG), with Tof1-Csm3 and in the data set with Mcm3 (subunit of CMG) was “binds” in each case.

B2: Dpb2 (subunit of Polε in the replisome) (natural protein, yeast)
chain: MFGSGNVLPVKIQPPLLRPLAYRVLSRKYGLSIKSDGLSALAEFVGTNIGANWRQGPATIKFLEQFAAVWKQQERGLFIDQSGVKEVIQEMKEREKVEWSHEHPIQHEENILGRTDDDENNSDDEMPIAADSSLQNVSLSSPMRQPTERDEYKQPFKPESSKALDWRDYFKVINASQQQRFSYNPHKMQFIFVPNKKQNGLGGIAGFLPDIEDKVQMFLTRYYLTNDRVMRNENFQNSDMFNPLSSMVSLQNELSNTNRQQQSSSMSITPIKNLLGRDAQNFLLLGLLNKNFKGNWSLEDPSGSVEIDISQTIPTQGHYYVPGCMVLVEGIYYSVGNKFHVTSMTLPPGERREITLETIGNLDLLGIHGISNNNFIARLDKDLKIRLHLLEKELTDHKFVILGANLFLDDLKIMTALSKILQKLNDDPPTLLIWQGSFTSVPVFASMSSRNISSSTQFKNNFDALATLLSRFDNLTENTTMIFIPGPNDLWGSMVSLGASGTLPQDPIPSAFTKKINKVCKNVVWSSNPTRIAYLSQEIVIFRDDLSGRFKRHRLEFPFNESEDVYTENDNMMSKDTDIVPIDELVKEPDQLPQKVQETRKLVKTILDQGHLSPFLDSLRPISWDLDHTLTLCPIPSTMVLCDTTSAQFDLTYNGCKVINPGSFIHNRRARYMEYVPSSKKTIQEEIYI
notes: Dpb2, yeast, subunit of Polε; NTD 12-98, linker 99-156, PDE domain 157-689 as printed; Chain of m2 as it stands in the replisome structure; also called Dpb2-NTD; Dpb2-OB; source: yeast strain yAJ2, purified as part of Polε (calmodulin resin, TEV elution, Mono Q, Superose 6)
In the case of B2, the binding result with Mcm5 (subunit of CMG) and with Mcm3 (subunit of CMG) was “binds” in each case.

B3: Ctf4 homotrimer (natural protein, yeast)
chain: MVSVIDKLVFDFGGKTLVSLAPDNNTLCVANKNGLTKILKTNNPEEEPETLDSSKLVSSIKCYSNSHFLMTTMQGDALRYNIDSSQEELLARFALPLRDCCVIHSGKMAVFGGDDLELILLELDDETHKKHAIKIDEQVSQISYNSQMNILAVSMINGKVQIFSLTSTIPNKVHELNDYIVANSYDDTHRDKILSNMMDDIDKDNDNDLSETADPDENNVADPEFCAANRICTRVAWHPKGLHFALPCADDTVKIFSIKGYSLQKTLSTNLSSTKAHFIDLQFDPLRGTYIAAVDLNNKLTVWNWETSEIHYTREFKRKITNIAWKIQADSKTLDLVLGTWSGSIAIVQNLAESVVSNIPDQSVAESSTKHGLFVDSESDLENLEGNDDINKSDKLFSDITQEANAEDVFTQTHDGPSGLSEKRKYNFEDEEDFIDDDDGAGYISGKKPHNEHSYSRVHKTHSFPISLANTGKFRYMPFSPAGTPFGFTDRRYLTMNEVGYVSTVKNSEQYSITVSFFDVGRFREYHFEDLFGYDLCFLNEKGTLFGQSKTGQIQYRPHDSIHSNWTKIIPLQAGERITSVAATPVRVIVGTSLGYFRSFNQFGVPFAVEKTSPIVALTAQNYRVFSVHYSQFHGLSYSLSELGTSSKRYYKRECPLPMSLPNINSDMKKDANLDYYNFNPMGIKSLFFSSYGDPCIFGSDNTLLLLSKWRSPEESKWLPILDSNMEIWKMSGGKETTDIHVWPLALAYDTLNCILVKGKHIWPEFPLPLPSEMEIRMPVFVKSKLLEENKAILNKKNEIGADTEAEEGEEDKEIQIPVSMAAEEEYLRSKVLSELLTDTLENDGEMYGNENEVLAALNGAYDKALLRLFASACSDQNVEKALSLAHELKQDRALTAAVKISERAELPSLVKKINNIREARYEQQLK
notes: Ctf4, yeast; also called Ctf4 trimer; source: E. coli BL21(DE3) Rosetta (pXZ1), purified (Ni-NTA, sumo protease, Ni-NTA, Mono Q, Superose 6)
For orientation: stoichiometry N means a count of units in the complex or per binding partner. For B3, the “stoichiometry N” value in data set [1] is 3.

Source of the values: publication PMC10511561, “Synergism between CMG helicase and leading strand DNA polymerase at replication fork” (Nature Communications, 2023).
